Article PMC10279549 (Blood Advances, 2023)

Experiments:
Assay in all cases: SPR
[1] = biological target: Glu-Gly-Arg-chloromethylketone active site-blocked activated protein C (EGR-APC)
[2] = biological target: Full-length wild-type recombinant factor V (FV-WT) (human, UniProt P12259 29-2224)
[3] = biological target: Full-length recombinant factor V W1920R (FV Nara) (human, UniProt P12259 29-2224, W1920R)
[4] = biological target: Full-length recombinant factor V R506Q (FV Leiden) (human, UniProt P12259 29-2224, R506Q)
Full-length recombinant factor V R506Q (FV Leiden), sequence (P12259 29-2224 R534Q): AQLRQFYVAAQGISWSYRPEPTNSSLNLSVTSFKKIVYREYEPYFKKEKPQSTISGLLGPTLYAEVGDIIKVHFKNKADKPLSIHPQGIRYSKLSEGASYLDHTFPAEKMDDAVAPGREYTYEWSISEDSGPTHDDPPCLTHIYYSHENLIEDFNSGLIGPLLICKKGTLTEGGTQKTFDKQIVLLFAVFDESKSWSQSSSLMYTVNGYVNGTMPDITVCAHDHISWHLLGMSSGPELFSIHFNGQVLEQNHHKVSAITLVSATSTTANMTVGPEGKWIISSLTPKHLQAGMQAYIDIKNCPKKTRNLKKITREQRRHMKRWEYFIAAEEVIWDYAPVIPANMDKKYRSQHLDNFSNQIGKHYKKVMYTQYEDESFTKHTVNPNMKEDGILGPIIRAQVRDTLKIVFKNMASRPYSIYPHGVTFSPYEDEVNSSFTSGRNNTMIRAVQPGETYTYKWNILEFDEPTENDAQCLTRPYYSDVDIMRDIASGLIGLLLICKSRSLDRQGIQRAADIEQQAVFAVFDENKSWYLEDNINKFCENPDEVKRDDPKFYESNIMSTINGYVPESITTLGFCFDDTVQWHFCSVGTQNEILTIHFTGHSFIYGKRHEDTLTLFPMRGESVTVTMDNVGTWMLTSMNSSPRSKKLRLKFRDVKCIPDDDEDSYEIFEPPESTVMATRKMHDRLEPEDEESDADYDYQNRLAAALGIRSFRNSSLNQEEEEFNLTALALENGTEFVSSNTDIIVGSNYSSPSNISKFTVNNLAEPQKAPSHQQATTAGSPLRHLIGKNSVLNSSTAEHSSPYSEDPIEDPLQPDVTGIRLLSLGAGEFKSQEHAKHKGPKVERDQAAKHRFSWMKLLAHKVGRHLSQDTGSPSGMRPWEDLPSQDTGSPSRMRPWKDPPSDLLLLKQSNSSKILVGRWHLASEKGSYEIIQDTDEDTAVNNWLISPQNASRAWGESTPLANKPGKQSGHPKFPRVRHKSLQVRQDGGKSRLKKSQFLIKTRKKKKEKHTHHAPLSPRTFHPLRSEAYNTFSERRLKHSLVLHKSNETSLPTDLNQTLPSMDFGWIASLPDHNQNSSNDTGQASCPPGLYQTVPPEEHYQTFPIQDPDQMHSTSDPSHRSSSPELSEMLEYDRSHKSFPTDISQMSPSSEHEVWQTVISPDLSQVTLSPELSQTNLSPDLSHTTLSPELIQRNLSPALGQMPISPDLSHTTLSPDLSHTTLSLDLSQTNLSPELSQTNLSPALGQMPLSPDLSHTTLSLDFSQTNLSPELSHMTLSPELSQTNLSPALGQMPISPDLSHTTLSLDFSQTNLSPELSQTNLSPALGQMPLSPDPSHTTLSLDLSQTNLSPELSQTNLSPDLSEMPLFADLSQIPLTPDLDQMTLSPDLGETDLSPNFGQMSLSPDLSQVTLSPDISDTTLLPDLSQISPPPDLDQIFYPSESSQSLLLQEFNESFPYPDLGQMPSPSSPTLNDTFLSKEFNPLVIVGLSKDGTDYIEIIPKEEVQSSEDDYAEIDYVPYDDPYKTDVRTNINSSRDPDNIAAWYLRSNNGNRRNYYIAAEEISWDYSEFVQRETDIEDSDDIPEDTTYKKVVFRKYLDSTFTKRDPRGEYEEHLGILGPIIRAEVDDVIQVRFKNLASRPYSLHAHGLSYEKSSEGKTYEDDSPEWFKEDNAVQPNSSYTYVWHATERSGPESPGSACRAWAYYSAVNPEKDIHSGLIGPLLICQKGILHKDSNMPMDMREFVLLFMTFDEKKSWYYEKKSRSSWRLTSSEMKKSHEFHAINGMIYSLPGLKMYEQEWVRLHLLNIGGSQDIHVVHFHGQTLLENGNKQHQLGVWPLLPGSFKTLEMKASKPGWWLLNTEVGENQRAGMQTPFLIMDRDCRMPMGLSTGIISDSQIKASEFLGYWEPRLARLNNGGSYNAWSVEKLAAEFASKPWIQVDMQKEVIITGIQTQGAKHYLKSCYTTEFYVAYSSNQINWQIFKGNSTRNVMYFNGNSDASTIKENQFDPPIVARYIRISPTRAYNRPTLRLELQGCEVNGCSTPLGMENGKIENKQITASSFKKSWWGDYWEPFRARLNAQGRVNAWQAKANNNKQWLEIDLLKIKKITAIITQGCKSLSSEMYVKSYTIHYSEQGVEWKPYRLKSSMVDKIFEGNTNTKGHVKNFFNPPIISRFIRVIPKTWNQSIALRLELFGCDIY

Full-length recombinant factor V W1920R (FV Nara), sequence (P12259 29-2224 W1948R): as the sequence (P12259 29-2224 R534Q) above, with Q506R, W1920R counted along it
Full-length wild-type recombinant factor V (FV-WT), sequence (P12259 29-2224): as the sequence (P12259 29-2224 R534Q) above, with Q506R counted along it

Kd [1] [nM] | koff [1] [s⁻¹] | kon [1] [M⁻¹ s⁻¹] | Kd [2] [nM] | koff [2] [s⁻¹] | kon [2] [M⁻¹ s⁻¹] | Kd [3] [nM] | koff [3] [s⁻¹] | kon [3] [M⁻¹ s⁻¹] | Kd [4] [nM] | koff [4] [s⁻¹] | kon [4] [M⁻¹ s⁻¹] | Molecule
20.3 | 0.00268 | 132000 |  |  |  |  |  |  |  |  |  | Full-length recombinant factor V A2086D (FV Besançon) (from UniProt P12259 29-2224) (natural protein)
19.1 | 0.00457 | 239000 |  |  |  |  |  |  |  |  |  | Full-length recombinant factor V R506Q (FV Leiden) (from UniProt P12259 29-2224) (natural protein)
12.8 | 0.00433 | 338000 |  |  |  |  |  |  |  |  |  | Full-length recombinant factor V W1920R (FV Nara) (from UniProt P12259 29-2224) (natural protein)
10.7 | 0.00359 | 337000 |  |  |  |  |  |  |  |  |  | Full-length wild-type recombinant factor V (FV-WT) (from UniProt P12259 29-2224) (natural protein)
 |  |  | 7.56 | 0.00393 | 520000 | 26.2 | 0.00382 | 145000 | 5.26 | 0.00374 | 711000 | Protein S (natural protein, UniProt P07225 42-676, looked up) ANSLLEETKQGNLERECIEELCNKEEAREVFENDPETDYFYPKYLVCLRSFQTGLFTAARQSTNAYPDLRSCVNAIPDQCSPLPCNEDGYMSCKDGKASFTCTCKPGWQGEKCEFDINECKDPSNINGGCSQICDNTPGSYHCSCKNGFVMLSNKKDCKDVDECSLKPSICGTAVCKNIPGDFECECPEGYRYNLKSKSCEDIDECSENMCAQLCVNYPGGYTCYCDGKKGFKLAQDQKSCEVVSVCLPLNLDTKYELLYLAEQFAGVVLYLKFRLPEISRFSAEFDFRTYDSEGVILYAESIDHSAWLLIALRGGKIEVQLKNEHTSKITTGGDVINNGLWNMVSVEELEHSISIKIAKEAVMDINKPGPLFKPENGLLETKVYFAGFPRKVESELIKPINPRLDGCIRSWNLMKQGASGIKEIIQEKQNKHCLVTVEKGSYYPGSGIAQFHIDYNNVSSAEGWHVNVTLNIRPSTGTGVMLALVSGNNTVPFAVSLVDSTSEKSQDILLSVENTVIYRIQALSLCSDQQSHLEFRVNRNNLELSTPLKIETISHEDLQRQLAVLDKAMKAKVATYLGGLPDVPFSATPVNAFYNGCMEVNINGVQLDLDEAISKHNDIRAHSCPSVWKKTKNS
